This series deals with the molecule itself. The series is described as follows: negative-stain electron microscopy of polymerised samples; polymerised 16 h at 298 K at 20 uM in F buffer without jasplakinolide, diluted to 1 uM, stained with 2% uranyl acetate.

B1: Plasmodium falciparum actin I, wild type (natural protein)
chain: not shown
notes: Plasmodium falciparum actin I; His74 is not methylated in the recombinant protein; In the pyrene assay about 10% of the actin carried N-(1-pyrene)iodoacetamide; also called PfActI; P. falciparum actin I; source: insect cells, purified (Ni-NTA, TEV cleavage, second Ni-NTA, Superdex 200 gel filtration)
Turning to B1, the binding result is reported as “binds”.

Source of the values: PMC6599135, “Atomic view into Plasmodium actin polymerization, ATP hydrolysis, and fragmentation” (PLoS Biology, 2019).
